Results on eight molecules are retold here after patent US20260347496 (published 2026).

The target in the experiment is CD24(27-56aa)-GST NEOX-4 (human). The experiment in a line: ELISA.
Chain of CD24(27-56aa)-GST NEOX-4 (human) (chain, as listed by the source): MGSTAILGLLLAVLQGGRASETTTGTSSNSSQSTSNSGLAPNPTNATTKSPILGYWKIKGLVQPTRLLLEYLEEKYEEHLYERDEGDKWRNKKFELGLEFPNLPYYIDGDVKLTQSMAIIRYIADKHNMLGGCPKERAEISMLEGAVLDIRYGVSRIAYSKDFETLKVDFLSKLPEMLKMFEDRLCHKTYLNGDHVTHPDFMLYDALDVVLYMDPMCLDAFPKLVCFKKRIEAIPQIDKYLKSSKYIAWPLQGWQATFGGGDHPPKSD

B1: huG14-221 (antibody, V domains shown)
VH: EVQLVESGGGLVKPGGSLRLSCAASGLTFSNYWMNWVRQAPGKGLEWVALIRLYSDNYAIHYAESVKGRFTISRDDSKSTVYLQMNSLKTEDTAVYYCTTGTDNWGQGTTVTVSS
VL: DVVMTQSPLSLPVTPGRPASISCKSSQSLLYSNGKTYLNWLLQKPGQSPQRLIYLVSKLDSGVPDRFSGSGSGTDFTLKISRVEAEDLGVYYCIQGTYFPYTFGQGTKLEIK
The molecule B1 had an EC50 of 5.93 ng/mL.

B2: huG14-224 (antibody, V domains shown)
VH: EVQLVESGGGLVKPGGSLRLSCAASGLTFSNYWMNWVRQAPGKGLEWVALIRLYSDNYAIHYAESVKGRFTISRDDSKSTVYLQMNSLKTEDTAVYYCTTGTDNWGQGTTVTVSS
VL: DVVMTQSPLSLPVTPGRPASISCKSSHSLLYSNGRTYLNWLLQKPGQSPQRLIYLVSKLDSGVPDRFSGSGSGTDFTLKISRVEAEDLGVYYCIQGTYFPYTFGQGTKLEIK
For B2, the EC50 was 6.18 ng/mL.

B3: huG14-227 (antibody, V domains shown)
VH: EVQLVESGGGLVKPGGSLRLSCAASGLTFSNYWGNWVRQAPGKGLEWVALIRLYSDNYAIHYAESVKGRFTISRDDSKSTVYLQMNSLKTEDTAVYYCTTGTDNWGQGTTVTVSS
VL: DVVMTQSPLSLPVTPGRPASISCKSSHSLLYSNGRTYLNWLLQKPGQSPQRLIYLVSKLDSGVPDRFSGSGSGTDFTLKISRVEAEDLGVYYCVQGTYFPYTFGQGTKLEIK
B3 displayed an EC50 of 7.63 ng/mL.

B4: huG14-231 (antibody, V domains shown)
VH: EVQLVESGGGLVKPGGSLRLSCAASGLTFSNYWGNWVRQAPGKGLEWVALIRLYSDNYAIHYAESVKGRFTISRDDSKSTVYLQMNSLKTEDTAVYYCTTGTDNWGQGTTVTVSS
VL: DVVMTQSPLSLPVTPGRPASISCKSSHSLLYSNGRTYLNWLLQKPGQSPQRLIYLVSKLDSGVPDRFSGSGSGTDFTLKISRVEAEDLGVYYCIQGTYFPYTFGQGTKLEIK
Molecule B4 showed an EC50 of 8.25 ng/mL.

B5: huG14-211 (antibody, V domains shown)
VH: EVQLVESGGGLVKPGGSLRLSCAASGLTFSNYWGNWVRQAPGKGLEWVALIRLYSDNYAIHYAESVKGRFTISRDDSKSTVYLQMNSLKTEDTAVYYCTTGTDYWGQGTTVTVSS
VL: DVVMTQSPLSLPVTPGRPASISCKSSHSLLYSNGETYLNWLLQKPGQSPQRLIYLVSKLDSGVPDRFSGSGSGTDFTLKISRVEAEDLGVYYCIQGTYFPYTFGQGTKLEIK
Turning to B5, the response was half-maximal at 3.34 ng/mL (EC50).

B6: huG14-218 (antibody, V domains shown)
VH: EVQLVESGGGLVKPGGSLRLSCAASGLTFSNYWMNWVRQAPGKGLEWVALIRLYSDNYAIHYAESVKGRFTISRDDSKSTVYLQMNSLKTEDTAVYYCTTGTDNWGQGTTVTVSS
VL: DVVMTQSPLSLPVTPGRPASISCKSSHSLLYSNGETYLNWLLQKPGQSPQRLIYLVSKLDSGVPDRFSGSGSGTDFTLKISRVEAEDLGVYYCIQGTYFPYTFGQGTKLEIK
B6 returned a half-maximal effective concentration (EC50) of 4.71 ng/mL. This EC50 and that of the molecule before are within 1.5-fold of each other.

B7: huG14-215 (antibody, V domains shown)
VH: EVQLVESGGGLVKPGGSLRLSCAASGLTFSNYWGNWVRQAPGKGLEWVALIRLYSDNYAIHYAESVKGRFTISRDDSKSTVYLQMNSLKTEDTAVYYCTTGTDYWGQGTTVTVSS
VL: DVVMTQSPLSLPVTPGRPASISCKSSQSLLYSNGRTYLNWLLQKPGQSPQRLIYLVSKLDSGVPDRFSGSGSGTDFTLKISRVEAEDLGVYYCIQGTYFPYTFGQGTKLEIK
Take B7: the EC50 was determined as 3.41 ng/mL. This EC50 and that of the molecule before are within 1.5-fold of each other.

B8: huG14-233 (antibody, V domains shown)
VH: EVQLVESGGGLVKPGGSLRLSCAASGLTFSNYWGNWVRQAPGKGLEWVALIRLYSDNYAIHYAESVKGRFTISRDDSKSTVYLQMNSLKTEDTAVYYCTTGTDNWGQGTTVTVSS
VL: DVVMTQSPLRLPVTPGRPASISCKSSHSLLYSNGRTYLNWLLQKPGQSPQRLIYLVSKLDSGVPDRFSGSGSGTDFTLKISRVEAEDLGVYYCIQGTYFPYTFGIGTKLEIK
For B8, a half-maximal response (EC50) required 8.41 ng/mL. Against the preceding molecule, the EC50 is about 2.5-fold higher.
